{"source": "paper PMC10866564", "about": "(Science Advances, 2024)", "experiment_in_all_cases": "SEC-MALS", "key": {"[1]": {"biological_target": "6×His-SYP-3 (C. elegans) (UniProt O62238)"}, "[2]": {"biological_target": "T1, 6×His-SYP-3 (C. elegans, UniProt O62238 1-224)", "T1 sequence": "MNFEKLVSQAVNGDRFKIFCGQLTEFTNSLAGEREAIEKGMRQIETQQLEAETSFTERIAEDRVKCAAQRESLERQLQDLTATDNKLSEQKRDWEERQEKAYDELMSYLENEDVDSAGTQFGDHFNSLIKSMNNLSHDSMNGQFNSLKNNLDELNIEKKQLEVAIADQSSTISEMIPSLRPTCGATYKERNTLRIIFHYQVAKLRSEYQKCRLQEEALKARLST"}, "[3]": {"biological_target": "the molecule itself"}}}
{"molecule": "SYP-1 (recombinant, untagged) (natural protein)", "values": [{"measurement": "stoichiometry N (copies of each protein in the complex)", "setting": "[1]", "result": 4}]}
{"molecule": "SYP-5 (recombinant, untagged) (natural protein)", "values": [{"measurement": "stoichiometry N (copies of each protein in the complex)", "setting": "[1]", "result": 4}]}
{"molecule": "SYP-4 (recombinant, untagged) (natural protein) MSFPTLQVRPNEKNPKVLRCHEFLRQSNQLVERNMINTEGRKMLAKLLTKMVSEAKGIYALDERRAELAKSGKLQEKLKSAYQTSLTVMEDRLHIAELSRQVQEKKLTVQQKYYECDDLRKSVQETNTEARRVQEINEQRLVDTTRATEELIVKSASILKNLENSSDVHKLRAMEEEKRILEEVVEGLRDQKKCLADDIRTKKATLKAESKKSFEKTVIECAKHYKLHQSLMPKLDKSKRSLETLKDEEENRRICGSLSLDETMQFDRSFILASMDKTNKPEKAVQQLTSKSSEVSITPQISETAKSSFSKEPIPTQHPMEVGEEPVIEHSAEESVHIEPPNVTEIREVVPQITIQPTRQDSVVQRDAEELDTSAVPSPQPESILDEPEEEEEELSNHENHADQSMDVMEVDQEVPEESPMEVGEQEEIEQPSVFKDILATEQAALSQEQEPEIVEKQADNDVQFVDDQQVGAQLDVEDEEEVMSENGSNKSNNFSFNFFGNSKGTSAGEGGGEGNFDFNFDGIGAGDDGSNNGGSTGDLDFLNYDGEDEGKGSGNTQSDPFGFASNGNAAGGGGDGSFNFNFDGDGEGGATSGAGGNSTSFFNF", "values": [{"measurement": "stoichiometry N", "setting": "[2]", "result": "4 copies of each protein in the complex"}]}
{"molecule": "SYP-2 (recombinant, untagged) (natural protein) MNSAHRSSLKKRPGPQDDRRVSFASPVSSSQKTAAVTVAAQTKQPAKAKNLRTMHSTPKKSKPAHDVADIISLVSKQSDILDDVSEIEHKMIKQAKMTQDLTMELANSIERIANMALAESKLSDQMEKQSKKLISLEGKTKELVEKANNWSKTLENRVDARSHHSTCLNDVQAAIKIINNAKINNDGFSEDFSAHYDKLLDLVETLEPWADKL", "values": [{"measurement": "stoichiometry N", "setting": "[2]", "result": "4 copies of each protein in the complex"}]}
{"molecule": "6×His-SKR-1^WT (natural protein) MADQKKVSEAAKEREIKISSSDNEIFLVPRNVIRLSNTINTLLMDLGLDDEEGTNAEPIPVQNVTASILKKVISWCNHHHSDPISTEDSDNREKRTDDIGSWDVEFLKVDQGTLFELILAANYLDIKGLLDVTCKTVANMIKGKSPEEIRRTFNIKNDFTPEEEEQIRKENAWCED", "values": [{"measurement": "stoichiometry N", "setting": "[3]", "result": 2}]}
{"molecule": "6×His-SKR-1^I155A,W173A (natural protein) MADQKKVSEAAKEREIKISSSDNEIFLVPRNVIRLSNTINTLLMDLGLDDEEGTNAEPIPVQNVTASILKKVISWCNHHHSDPISTEDSDNREKRTDDIGSWDVEFLKVDQGTLFELILAANYLDIKGLLDVTCKTVANMIKGKSPEEIRRTFNAKNDFTPEEEEQIRKENAACED", "values": [{"measurement": "stoichiometry N", "setting": "[3]", "result": 2}]}
{"molecule": "SKR-1 (recombinant, untagged) (natural protein) MADQKKVSEAAKEREIKISSSDNEIFLVPRNVIRLSNTINTLLMDLGLDDEEGTNAEPIPVQNVTASILKKVISWCNHHHSDPISTEDSDNREKRTDDIGSWDVEFLKVDQGTLFELILAANYLDIKGLLDVTCKTVANMIKGKSPEEIRRTFNIKNDFTPEEEEQIRKENAWCED", "values": [{"measurement": "stoichiometry N", "setting": "[2]", "result": "4 copies of each protein in the complex"}]}
